Data as given in paper PMC4939597, “Mechanism for insulin-like peptide 5 distinguishing the homologous relaxin family peptide receptor 3 and 4” (Scientific Reports, 2016).
No end group written: not given here.

How the values were obtained:
[1] = target: T1, human RXFP3 (Homo sapiens, UniProt Q9NSD7); experiment: Receptor binding assay, competition with NanoLuc-conjugated R3/I5 tracer; details: for pIC50 RXFP3: HEK293T cells transiently overexpressing human RXFP3, 0.5 nM NanoLuc-conjugated R3/I5 tracer, 21 °C, 2 h, mean ± SE, n = 3, SEM; for fold lower binding potency towards RXFP3 compared with wild-type INSL5: lower than wild-type INSL5
T1 construct: expressed in transfected cells; host or cells: HEK293T
T1 sequence (Q9NSD7 1-469): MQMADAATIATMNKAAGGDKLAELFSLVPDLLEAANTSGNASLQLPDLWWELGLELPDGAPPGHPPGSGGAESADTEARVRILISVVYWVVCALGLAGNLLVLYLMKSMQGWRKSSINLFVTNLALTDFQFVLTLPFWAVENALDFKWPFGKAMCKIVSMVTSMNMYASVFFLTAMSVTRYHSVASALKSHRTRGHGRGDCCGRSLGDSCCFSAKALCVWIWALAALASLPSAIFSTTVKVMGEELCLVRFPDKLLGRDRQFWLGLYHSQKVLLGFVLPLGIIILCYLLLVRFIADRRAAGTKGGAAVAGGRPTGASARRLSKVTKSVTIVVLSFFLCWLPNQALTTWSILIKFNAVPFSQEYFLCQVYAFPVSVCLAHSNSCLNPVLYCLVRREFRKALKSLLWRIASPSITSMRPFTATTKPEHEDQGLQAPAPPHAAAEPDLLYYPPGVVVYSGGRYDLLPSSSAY
Description: (§1) Figure 3 Receptor binding activities of the mature INSL5 and R3/I5 mutants towards RXFP3 and RXFP4. A NanoLuc-conjugated R3/I5 peptide was used as tracer and HEK293T cells transiently overexpressing human RXFP3 or human RXFP4 were used as receptor source. The tracer concentration used in these assays was 0.5 nM. The nonspecific binding was obtained by competition with 1.0 μM of relaxin-3. The measured data were expressed as mean ± SE (n = 3) and fitted to sigmoidal curves using the software SigmaPlot 10.0.
(§2) The receptor binding assays of the mature INSL5 and R3/I5 mutants were carried out using a NanoLuc-conjugated R3/I5 peptide as tracer and the human embryonic kidney (HEK) 293T cells transiently overexpressing human RXFP3 or human RXFP4 as receptor source. Nonspecific binding was obtained by competition with 1.0 μM of human relaxin-3. Briefly, HEK293T cells were transiently transfected with the expression construct of human RXFP3 or human RXFP4. Next day, the transfected cells were trypsinised, seeded into a 96-well plate, and continuously cultured for 24–36 h to confluence. To start binding assay, the medium was removed and the binding solution (serum-free DMEM medium plus 1% bovine serum albumin) containing 0.5 nM of the NanoLuc-conjugated R3/I5 tracer and varied concentrations of competitor was added (100 μl/well). After incubation at 21 °C for 2 h, the binding solution was removed and the cells were washed twice by ice-cold phosphate-buffered saline (200 μl/well for each wash). Thereafter, the cells were lysed by lysis solution (100 μl/well, from Promega, Madison, WI, USA) and the cell lysate was transferred to a white opaque 96-well plate (50 μl/well). After mixing with the freshly diluted substrate (50 μl/well), bioluminescence was immediately measured on a SpectraMax M5 plate reader (Molecular Devices, Sunnyvale, CA, USA) using the luminescence mode. The measured bioluminescence data were expressed as mean ± SE (n = 3) and fitted to sigmoidal curves using the SigmaPlot10.0 software.

[2] = target: T2, human RXFP4 (Homo sapiens, UniProt Q8TDU9); experiment: as above; details: for pIC50 RXFP4: HEK293T cells transiently overexpressing human RXFP4, 0.5 nM NanoLuc-conjugated R3/I5 tracer, 21 °C, 2 h, mean ± SE, n = 3, SEM; for fold lower binding potency towards RXFP4 compared with wild-type INSL5: lower than wild-type INSL5
T2 construct: expressed in transfected cells; host or cells: HEK293T
T2 sequence (Q8TDU9 whole entry): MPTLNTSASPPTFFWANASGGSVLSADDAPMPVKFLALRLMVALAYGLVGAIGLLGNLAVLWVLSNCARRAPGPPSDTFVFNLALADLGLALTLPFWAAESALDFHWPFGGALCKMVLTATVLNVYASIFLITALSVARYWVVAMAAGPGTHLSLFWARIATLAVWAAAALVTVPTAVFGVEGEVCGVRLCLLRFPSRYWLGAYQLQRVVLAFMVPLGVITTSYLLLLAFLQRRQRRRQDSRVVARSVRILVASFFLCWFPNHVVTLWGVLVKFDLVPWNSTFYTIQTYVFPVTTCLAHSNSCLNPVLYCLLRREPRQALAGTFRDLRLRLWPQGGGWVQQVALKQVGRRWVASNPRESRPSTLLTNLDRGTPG
Description: as §1, §2

[3] = target: T1, human RXFP3; experiment: Receptor activation assay, CRE-controlled NanoLuc reporter; format: cell-based; details: for pEC50 RXFP3: HEK293T cells cotransfected with human RXFP3 and CRE-controlled NanoLuc reporter, 1.0 μM forskolin, 37 °C, 4 h, mean ± SE, n = 3, N.D., not detectable, SEM; for fold lower activation potency towards RXFP3 compared with wild-type R3/I5: lower than wild-type R3/I5; for activation potency towards RXFP3, result in words: CRE-controlled NanoLuc reporter, HEK293T cells, human RXFP3
Description: (§3) Figure 4 Receptor activation activities of the mature INSL5 and R3/I5 mutants towards RXFP3 and RXFP4. HEK293T cells transiently cotransfected by human RXFP3 or human RXFP4 and a CRE-controlled NanoLuc reporter were used for the activation assays. The measured data were expressed as mean ± SE (n = 3) and fitted to sigmoidal or linear curves using the software SigmaPlot 10.0.
(§4) The receptor activation assays of the mature INSL5 and R3/I5 mutants were carried out using a cAMP-response element (CRE)-controlled NanoLuc reporter according to our previous procedure. Briefly, HEK293T cells were transiently cotransfected with the expression construct of human RXFP3 or human RXFP4 and the CRE-controlled NanoLuc reporter vector pNL1.2/CRE. Next day, the transfected cells were trypsinised, seeded into a 96-well plate, and continuously cultured for 24–36 h to ~90% confluence. To start activation assay, the medium was removed and the activation solution (serum-free DMEM medium plus 1% bovine serum albumin) containing 1.0 μM of forskolin and varied concentrations of peptide was added (100 μl/well). After being continuously cultured at 37 °C for 4 h, the activation solution was removed and the cells were lysed by lysis solution (100 μl/well, from Promega). The cell lysate was then transferred to a white opaque 96-well plate (50 μl/well), mixed with the freshly diluted substrate (50 μl/well), and bioluminescence was immediately measured on a SpectraMax M5 plate reader (Molecular Devices) using the luminescence mode. The measured bioluminescence data were expressed as mean ± SE (n = 3) and fitted to sigmoidal or linear curves using the SigmaPlot10.0 software.

[4] = target: T2, human RXFP4; experiment: as above; format: cell-based; details: for pEC50 RXFP4: HEK293T cells cotransfected with human RXFP4 and CRE-controlled NanoLuc reporter, 1.0 μM forskolin, 37 °C, 4 h, mean ± SE, n = 3, SEM; for fold lower activation potency towards RXFP4 compared with INSL5: lower than wild-type INSL5
Description: as §3, §4

Row | Compound | pIC50 RXFP3 [1] | pIC50 RXFP4 [2] | pEC50 RXFP3 [3] | pEC50 RXFP4 [4] | other results
1 | [Y(B17)F]INSL5: recombinant mature two-chain INSL5 mutant (Insulin-like peptide INSL5 B … KESVRLCGLEYIRTVIFICASSRW; Insulin-like peptide INSL5 A … QDLQTLCCTDGCSMTDLSALC; ends and bridges not checked; cysteine pairing not given here; UniProt Q9Y5Q6 23-46; Q9Y5Q6 115-135, looked up, variant Y17F) | 6.77 ± 0.05 | 7.23 ± 0.03 | 6.83 ± 0.08 | 8.40 ± 0.09 | fold lower binding potency towards RXFP3 compared with wild-type INSL5 [1]: ~ 3 fold; fold lower binding potency towards RXFP4 compared with wild-type INSL5 [2]: ~ 3 fold; fold lower activation potency towards RXFP4 compared with INSL5 [4]: ~ 9 fold
2 | [A(B20)G,S(B21)G]INSL5: recombinant mature two-chain INSL5 mutant (Insulin-like peptide INSL5 B … KESVRLCGLEYIRTVIYICGGSRW; Insulin-like peptide INSL5 A … QDLQTLCCTDGCSMTDLSALC; not fully specified; ends and bridges not checked; UniProt Q9Y5Q6 23-46; Q9Y5Q6 115-135, looked up, variant A20G S21G) | 6.01 ± 0.06 | 6.39 ± 0.05 | 6.90 ± 0.04 | 8.59 ± 0.05 | fold lower binding potency towards RXFP3 compared with wild-type INSL5 [1]: ~ 18 fold; fold lower binding potency towards RXFP4 compared with wild-type INSL5 [2]: ~ 23 fold; fold lower activation potency towards RXFP3 than relaxin-3 ([3]; lower than relaxin-3): ~ 5000 fold; fold lower activation potency towards RXFP4 compared with INSL5 [4]: ~ 6 fold
3 | CC[C@H](C)[C@@H]1NC(=O)[C@H](Cc2ccccc2)NC(=O)[C@H](CCC(=O)O)NC(=O)[C@H](CCCNC(=N)N)NC(=O)CNC(=O)[C@@H](NC(=O)[C@H](CC(C)C)NC(=O)[C@H](CCCCN)NC(=O)[C@@H](NC(=O)CNC(=O)[C@H](Cc2ccc(O)cc2)NC(=O)[C@@H]2CCCN2C(=O)[C@H](C)NC(=O)[C@H](C)NC(=O)[C@@H](N)CCCNC(=N)N)C(C)C)CSSC[C@@H]2NC(=O)[C@@H](NC(=O)[C@H](CC(C)C)NC(=O)[C@@H](NC(=O)[C@H](CCC(N)=O)NC(=O)[C@H](CC(C)C)NC(=O)[C@H](CC(=O)O)NC(=O)[C@@H](N)CCC(N)=O)[C@@H](C)O)CSSC[C@H](NC(=O)CNC(=O)[C@H](CC(=O)O)NC(=O)[C@H]([C@@H](C)O)NC2=O)C(=O)N[C@@H](CO)C(=O)N[C@@H](CCSC)C(=O)N[C@@H]([C@@H](C)O)C(=O)N[C@@H](CC(=O)O)C(=O)N[C@@H](CC(C)C)C(=O)N[C@@H](CO)C(=O)N[C@@H](C)C(=O)N[C@@H](CC(C)C)C(=O)N[C@H](C(=O)O)CSSC[C@@H](C(=O)NCC(=O)NCC(=O)N[C@@H](CO)C(=O)N[C@@H](CCCNC(=N)N)C(=O)N[C@@H](Cc2c[nH]c3ccccc23)C(=O)O)NC(=O)[C@H]([C@@H](C)O)NC(=O)[C@H](Cc2ccc(O)cc2)NC(=O)[C@H]([C@@H](C)CC)NC(=O)[C@H](C(C)C)NC(=O)[C@H](C)NC(=O)[C@H](CCCNC(=N)N)NC1=O [[F(B20)Y]R3/I5] |  |  |  |  | fold lower binding potency towards RXFP4 compared with wild-type R3/I5 ([2]; lower than wild-type R3/I5): ~ 3 fold; fold lower activation potency towards RXFP3 compared with wild-type R3/I5 [3]: ~ 3 fold; fold lower activation potency towards RXFP4 than wild-type R3/I5 ([4]; lower than wild-type R3/I5): ~ 15 fold
4 | [I(B18)T]INSL5: recombinant mature two-chain INSL5 mutant (Insulin-like peptide INSL5 B … KESVRLCGLEYIRTVIYTCASSRW; Insulin-like peptide INSL5 A … QDLQTLCCTDGCSMTDLSALC; ends and bridges not checked; cysteine pairing not given here; UniProt Q9Y5Q6 23-46; Q9Y5Q6 115-135, looked up, variant I18T) | 7.07 ± 0.04 | 7.43 ± 0.05 |  | 9.31 ± 0.08 | activation potency towards RXFP3, result in words [3]: no detectable activation potency
5 | CC[C@H](C)[C@@H]1NC(=O)[C@H](Cc2ccccc2)NC(=O)[C@H](CCC(=O)O)NC(=O)[C@H](CC(C)C)NC(=O)CNC(=O)[C@@H](NC(=O)[C@H](CC(C)C)NC(=O)[C@H](CCCCN)NC(=O)[C@@H](NC(=O)CNC(=O)[C@H](Cc2ccc(O)cc2)NC(=O)[C@@H]2CCCN2C(=O)[C@H](C)NC(=O)[C@H](C)NC(=O)[C@@H](N)CCCNC(=N)N)C(C)C)CSSC[C@@H]2NC(=O)[C@@H](NC(=O)[C@H](CC(C)C)NC(=O)[C@@H](NC(=O)[C@H](CCC(N)=O)NC(=O)[C@H](CC(C)C)NC(=O)[C@H](CC(=O)O)NC(=O)[C@@H](N)CCC(N)=O)[C@@H](C)O)CSSC[C@H](NC(=O)CNC(=O)[C@H](CC(=O)O)NC(=O)[C@H]([C@@H](C)O)NC2=O)C(=O)N[C@@H](CO)C(=O)N[C@@H](CCSC)C(=O)N[C@@H]([C@@H](C)O)C(=O)N[C@@H](CC(=O)O)C(=O)N[C@@H](CC(C)C)C(=O)N[C@@H](CO)C(=O)N[C@@H](C)C(=O)N[C@@H](CC(C)C)C(=O)N[C@H](C(=O)O)CSSC[C@@H](C(=O)NCC(=O)NCC(=O)N[C@@H](CO)C(=O)N[C@@H](CCCNC(=N)N)C(=O)N[C@@H](Cc2c[nH]c3ccccc23)C(=O)O)NC(=O)[C@H]([C@@H](C)O)NC(=O)[C@H](Cc2ccccc2)NC(=O)[C@H]([C@@H](C)CC)NC(=O)[C@H](C(C)C)NC(=O)[C@H](C)NC(=O)[C@H](CCCNC(=N)N)NC1=O [[R(B12)L]R3/I5] |  |  |  |  | fold lower binding potency towards RXFP3 compared with wild-type R3/I5 ([1]; lower than wild-type R3/I5): ~ 110 fold; fold lower activation potency towards RXFP3 compared with wild-type R3/I5 [3]: ~ 1600 fold

Now from value to compound, other results behind:

Row | pIC50 RXFP3 [1] | pIC50 RXFP4 [2] | pEC50 RXFP3 [3] | pEC50 RXFP4 [4] | Compound | other results
6 | 7.26 ± 0.05 | 7.75 ± 0.02 |  | 9.36 ± 0.06 | insulin-like peptide 5 (Insulin-like peptide INSL5 B … KESVRLCGLEYIRTVIYICASSRW; Insulin-like peptide INSL5 A … QDLQTLCCTDGCSMTDLSALC; UniProt Q9Y5Q6 23-46; Q9Y5Q6 115-135, looked up) [recombinant mature two-chain human INSL5, cognate agonist of RXFP4, reference compound] | fold lower binding affinity for RXFP3 than relaxin-3 ([1]; lower than relaxin-3): ~ 27 fold; activation potency towards RXFP3, result in words [3]: no detectable activation potency
7 | 8.85 ± 0.02 | 8.24 ± 0.03 | 10.44 ± 0.03 | 10.32 ± 0.03 | R3/I5: chimeric peptide containing the B-chain of relaxin-3 and the A-chain of INSL5 [reference compound] | 
